The nature of series [1]: Inclusion of insulin in liposomes (ELISA after liberation from liposomes). Format: physicochemical. To be noted: DPPC/DPPG/Chol 50:10:40 liposomes, 50 mM lipid, extrusion 200 or 400 nm. On the procedure: A mixture of 50 mole-% DPPC, 10 mole-% DPPG and 40 mole-% Chol is dissolved in chloroform at 50° C. and subsequently dried completely in vacuum in a rotary evaporator. The lipid film is added with human insulin solution (recombinant insulin; 7.5 mg/ml insulin in 10 mM glycine-HCl, 300 mM sucrose, pH 3) in an amount so as to form a 50 mM suspension. Subsequently, this suspension is hydrated in a water bath at 50° C. for 45 minutes by agitating and treated in an ultrasonic bath for another 5 minutes. Thereafter, the suspension is frozen. This is followed by 3 cycles of freezing and thawing, each thawing being followed by a 5 minute treatment in the ultrasonic bath.
Following final thawing, the liposomes are subjected to multiple extrusions through a membrane having a pore width of 200 nm or 400 nm (Avestin LiposoFast, polycarbonate membrane with a pore width of 200 or 400 nm). Following extrusion, the resulting suspension is rebuffered by adding a solutions of HEPES, pH 7.5, and NaCl. After filtration of the liposomes through […], non-entrapped insulin is removed by gel filtration (S-200 column, Pharmacia) . Following liberation from the liposomes, the amount of entrapped insulin is determined by means of an ELISA (DRG-ELISA Kit). Inclusion rates of 50-70% insulin are found.

The nature of series [2]: Inclusion of leuprolide acetate in liposomes (ultracentrifugation, RP-HPLC). Format: physicochemical. The following applies: formulation L1 DPPC/DPPG/Chol liposomes, 100 mM lipid, extrusion 400 nm. On the procedure:
is dissolved in chloroform at 50° C. and subsequently dried completely in vacuum in a rotary evaporator. The lipid film is added with leuprolide acetate solution (2.5 mg/ml in 10 mM HEPES, 150 mM NaCl, pH 6) in an amount so as to form a 100 mM suspension. Subsequently, this suspension is hydrated in a water bath at 50° C for 45 minutes with agitating. Thereafter, the suspension is frozen. This is followed by 3 additional cycles of freezing and thawing.
Following final thawing, the liposomes are subjected to multiple extrusions through a membrane having a pore width of 400 nm (Avestin LiposoFast, polycarbonate membrane with a pore width of 400 nm).
Following removal of free leuprolide acetate, the percentage of entrapped leuprolide acetate is determined by means of triple sedimentation in an ultracentrifuge at 60,000×g for 45 minutes. The leuprolide acetate is determined following extraction with CHCl3 and CH3OH, using RP-HPLC. Inclusion rates of about 15% leuprolide acetate are found.

Regarding “insulin: recombinant human insulin entrapped in DPPC/DPPG/Chol 50:10:40 liposomes”, the “Inclusion rate of insulin” value in series [1] is reported as 50-70%.

For `CCNC(=O)[C@@H]1CCCN1C(=O)[C@H](CCCNC(=N)N)NC(=O)[C@H](CC(C)C)NC(=O)[C@@H](CC(C)C)NC(=O)[C@H](Cc1ccc(O)cc1)NC(=O)[C@H](CO)NC(=O)[C@H](Cc1c[nH]c2ccccc12)NC(=O)[C@H](Cc1c[nH]cn1)NC(=O)[C@@H]1CCC(=O)N1` [leuprolide acetate], the “Inclusion rate of leuprolide acetate” value in series [2] is reported as “about 15%”.

(Values after patent US20070053918A1, “Injectable depots consisting of liposomal aggregates for the delivery of active substances” (NOVOSOM AG, priority 2003, published 2007).)
